B1: T790M-8 (peptide)
peptide: IMQLMPFGCLL
B2: T790M-5 (peptide)
peptide: MQLMPFGCLL
B3: T790M-7 (peptide)
peptide: LIMQLMPFGCL

These binders were tested against HLA-A2 molecule (assay: HLA class I stabilization assay, RMA-S/A2 cells, peptide 10 µg/ml, flow cytometry with BB7.2).
Work on B1 yielded an HLA binding capability (%) (MFI increase) of 69.3%.
B2 showed an HLA binding capability (%) (MFI increase) of 267%.
Work on B3 yielded an HLA binding capability (%) (MFI increase) of 31.2%.

From US20150218248A1
